The target in this assay is Cell-surface expressed nucleolin (on THP-1 monocytic cells; on HeLa P4 cells) (human), P19338. The assay can be described thus: cell-based or functional assay.

Ends that are not written are not given here.

Sequence of Cell-surface expressed nucleolin (on THP-1 monocytic cells; on HeLa P4 cells) (human), P19338 (P19338 2-710 limits assumed): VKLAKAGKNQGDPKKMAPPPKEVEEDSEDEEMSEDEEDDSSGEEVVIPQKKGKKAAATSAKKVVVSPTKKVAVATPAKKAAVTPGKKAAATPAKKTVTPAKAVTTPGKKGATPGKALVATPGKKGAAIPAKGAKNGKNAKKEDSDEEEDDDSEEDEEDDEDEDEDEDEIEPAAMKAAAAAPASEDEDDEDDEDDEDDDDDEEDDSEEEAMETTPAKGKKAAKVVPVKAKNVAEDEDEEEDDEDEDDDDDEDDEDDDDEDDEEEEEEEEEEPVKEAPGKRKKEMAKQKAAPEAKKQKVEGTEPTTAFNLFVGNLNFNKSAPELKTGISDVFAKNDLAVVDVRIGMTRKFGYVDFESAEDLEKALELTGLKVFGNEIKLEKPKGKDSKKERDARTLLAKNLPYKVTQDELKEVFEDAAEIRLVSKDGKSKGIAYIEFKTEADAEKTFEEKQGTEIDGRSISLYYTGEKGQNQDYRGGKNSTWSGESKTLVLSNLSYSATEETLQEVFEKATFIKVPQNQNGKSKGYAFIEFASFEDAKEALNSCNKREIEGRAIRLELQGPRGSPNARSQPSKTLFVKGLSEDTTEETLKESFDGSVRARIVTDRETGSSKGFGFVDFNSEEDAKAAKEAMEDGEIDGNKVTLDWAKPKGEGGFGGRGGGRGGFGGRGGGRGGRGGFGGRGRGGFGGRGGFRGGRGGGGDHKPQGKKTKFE

B1: HB-19 pseudopeptide, 5[Lys (CH2N)Pro-Arg]-template-assembled synthetic peptide (peptide)
chain: KKKGPKEK
peptide: Lys-Pro-Arg
modifications: also: Lys (CH2N)Pro reduced bond, five Lys-Pro-Arg units assembled on template
Take B1: the level of infection of THP-1 cells, HB-19 together with anti-CR3 Mab turned out to be 95%.

(Values after EP2033655B1.)
